Assay results published in patent US20240293565A1 (BEIJING SINOTAU BIO PHARMACEUTICALS TECHNOLOGY, published 2024).

B1: ch3F8-MMAE (antibody, V domains shown)
VH: DVQLQESGPGLVKPSQSLSLTCSVTGYSITSAYYWNWIRQFPGDKLEWMGYISYDGRNNFNPSLKNRISITRDTSKNQFFLKLNSVTSGDTATYYCARDGDYDYFDYWGQGTTLTVSS
VL: DIQMTQTTSSLSASLGDRVTISCRASQDISNYLNWYQQKPDGTFKLLIYYTSILHSGVPSRFSGSGSGTDYSLTISNLEQEDIATYFCQQGDTLPPTFGAGTKLELK
modifications: MC-VC-MMAE conjugated to cysteine residues of the antibody after reduction of disulfide bonds (positions not stated), DAR around 3.8
B2: chimeric 3F8 (antibody, human IgG1, V domains shown)
VH: B1 VH
VL: B1 VL
notes: also called ch3F8; Ch3F8

Legend:
[1] = molecular target: T1, human HER3 on the cell surface (human, UniProt P21860 20-1342); assay: cell-based or functional assay
[2] = molecular target: T1, human HER3 on the cell surface; assay: flow cytometry on SP2/0-HER3 cells
Method: ch3F8-MMAE maintains the similar binding affinity to ch3F8. ch3F8-MMAE binding affinity with HER3 was measured with SP2/0-HER3 by FACS.

T1 sequence (P21860 20-1342): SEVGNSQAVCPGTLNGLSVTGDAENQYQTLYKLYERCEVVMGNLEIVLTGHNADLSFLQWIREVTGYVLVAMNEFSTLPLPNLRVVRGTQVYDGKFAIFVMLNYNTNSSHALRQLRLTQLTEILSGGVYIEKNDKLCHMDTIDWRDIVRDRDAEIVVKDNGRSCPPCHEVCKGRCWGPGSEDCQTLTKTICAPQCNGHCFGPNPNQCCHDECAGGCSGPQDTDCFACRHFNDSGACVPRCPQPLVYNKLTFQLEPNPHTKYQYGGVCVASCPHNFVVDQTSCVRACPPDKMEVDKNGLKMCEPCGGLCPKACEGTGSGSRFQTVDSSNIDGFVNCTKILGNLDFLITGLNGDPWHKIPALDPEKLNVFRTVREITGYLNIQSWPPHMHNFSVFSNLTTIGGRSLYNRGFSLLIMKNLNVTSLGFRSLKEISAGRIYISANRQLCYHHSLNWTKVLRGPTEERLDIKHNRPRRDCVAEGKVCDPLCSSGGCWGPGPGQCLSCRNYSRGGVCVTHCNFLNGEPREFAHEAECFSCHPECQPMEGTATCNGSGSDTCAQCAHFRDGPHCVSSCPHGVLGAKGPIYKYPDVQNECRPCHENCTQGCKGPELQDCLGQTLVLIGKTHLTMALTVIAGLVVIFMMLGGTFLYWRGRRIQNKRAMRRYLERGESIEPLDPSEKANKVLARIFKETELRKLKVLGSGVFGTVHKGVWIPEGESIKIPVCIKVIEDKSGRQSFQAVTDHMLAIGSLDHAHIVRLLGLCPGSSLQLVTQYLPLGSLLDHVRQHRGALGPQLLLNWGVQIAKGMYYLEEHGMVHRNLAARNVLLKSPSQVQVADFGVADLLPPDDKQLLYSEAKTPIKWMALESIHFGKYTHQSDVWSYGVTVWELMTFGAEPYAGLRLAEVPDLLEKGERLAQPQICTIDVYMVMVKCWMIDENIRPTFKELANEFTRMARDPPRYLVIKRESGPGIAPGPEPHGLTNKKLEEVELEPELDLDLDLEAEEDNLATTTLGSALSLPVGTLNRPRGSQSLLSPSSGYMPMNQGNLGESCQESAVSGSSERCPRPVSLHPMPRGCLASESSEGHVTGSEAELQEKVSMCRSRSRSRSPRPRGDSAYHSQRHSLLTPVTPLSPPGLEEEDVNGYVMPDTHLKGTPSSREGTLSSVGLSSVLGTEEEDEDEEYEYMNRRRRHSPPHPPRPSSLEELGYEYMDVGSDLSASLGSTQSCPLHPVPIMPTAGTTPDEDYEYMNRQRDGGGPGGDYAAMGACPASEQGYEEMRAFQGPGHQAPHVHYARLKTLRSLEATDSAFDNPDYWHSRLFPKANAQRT

Binder	cytotoxicity IC50 (nM), ATPlite, 7901 cells [1] [nM]	cytotoxicity IC50 (nM), ATPlite, HT-29 cells [1] [nM]	cytotoxicity IC50 (nM), ATPlite, MCF-7 cells [1] [nM]	cytotoxicity IC50 (nM), ATPlite, MDA-MB-453 cells [1] [nM]	cytotoxicity IC50 (nM), ATPlite, N87 cells [1] [nM]	cytotoxicity IC50 (nM), ATPlite, SK-BR-3 cells [1] [nM]	cytotoxicity IC50 (nM), ATPlite, SP2/0-HER3 cells [1] [nM]	EC50 (read off the curve) [2] [µg/mL]
B1	5.74	4.67	9.49	0.0401	1.91	0.159	0.486	
B2								~0.08
